The results in this text go back to US7144983 (Genentech, dated 2006).

Bounds are passed on as bounds.

Experiment [1] deals with T1, rat trkA recombinantly expressed on NIH3T3 cells (rat, UniProt P35739 33-799).
T1 construct: whole, on cells; also called NIH3T3-trkA; p140trkA
Kind of experiment: 125I-hNGF displacement, NIH3T3-trkA cells, 4 C.

Experiment [2] concerns the target T1, rat trkA recombinantly expressed on …. Kind of experiment: cell-based or functional assay.
In experiment [3] the target is trkA on parental PC12 cells (rat, UniProt P35739 33-799). Nature of the experiment: cell-based or functional assay.
trkA on parental PC12 cells, sequence (P35739 33-799): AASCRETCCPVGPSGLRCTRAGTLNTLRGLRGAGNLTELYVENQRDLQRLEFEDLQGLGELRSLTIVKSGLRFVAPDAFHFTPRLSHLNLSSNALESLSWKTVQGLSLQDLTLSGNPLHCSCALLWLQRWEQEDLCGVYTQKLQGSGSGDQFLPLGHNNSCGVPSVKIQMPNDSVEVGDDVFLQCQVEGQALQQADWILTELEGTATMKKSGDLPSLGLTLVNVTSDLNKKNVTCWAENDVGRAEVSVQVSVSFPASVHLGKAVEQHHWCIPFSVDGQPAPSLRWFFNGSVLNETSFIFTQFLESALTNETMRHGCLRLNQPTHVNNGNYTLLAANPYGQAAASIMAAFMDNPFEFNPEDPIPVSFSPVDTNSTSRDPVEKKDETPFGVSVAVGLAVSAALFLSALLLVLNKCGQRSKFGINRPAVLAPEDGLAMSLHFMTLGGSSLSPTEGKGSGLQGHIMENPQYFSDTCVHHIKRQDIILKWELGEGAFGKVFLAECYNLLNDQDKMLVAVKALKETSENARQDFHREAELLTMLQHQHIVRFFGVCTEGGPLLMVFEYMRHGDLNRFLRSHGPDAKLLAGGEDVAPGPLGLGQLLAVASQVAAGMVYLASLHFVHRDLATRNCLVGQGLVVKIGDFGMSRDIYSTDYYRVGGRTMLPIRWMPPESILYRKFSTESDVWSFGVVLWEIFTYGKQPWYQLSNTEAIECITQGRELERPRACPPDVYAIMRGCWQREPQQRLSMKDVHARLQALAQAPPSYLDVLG
Experiment [4] deals with T2, p75 on A875 human melanoma cells (human, UniProt P08138 29-427).
T2 construct: whole, on cells; also called A875-p75
T2 sequence (looked up): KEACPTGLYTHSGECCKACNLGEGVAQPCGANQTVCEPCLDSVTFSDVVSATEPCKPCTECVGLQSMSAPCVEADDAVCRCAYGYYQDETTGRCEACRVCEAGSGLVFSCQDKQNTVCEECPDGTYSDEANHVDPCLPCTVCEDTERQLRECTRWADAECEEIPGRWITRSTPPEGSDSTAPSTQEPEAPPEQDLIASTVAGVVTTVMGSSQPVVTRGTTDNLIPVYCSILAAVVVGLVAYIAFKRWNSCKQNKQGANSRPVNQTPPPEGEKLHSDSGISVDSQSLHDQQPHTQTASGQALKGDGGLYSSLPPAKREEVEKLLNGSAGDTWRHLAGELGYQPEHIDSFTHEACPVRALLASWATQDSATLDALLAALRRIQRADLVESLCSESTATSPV
Kind of experiment: 125I-hNGF displacement, A875 cells (p75), 4 C.

T1 sequence (P35739 33-799): as the sequence (P35739 33-799) above

B1: hNGF Mut 5 (hBDNF N-terminal chimeric mutant) (ligand)
chain: HSDPAHRGEFSVCDSVSVWVGDKTTATDIKGKEVMVLGEVNINNSVFKQYFFETKCRDPNPVDSGCRGIDSKHWNSYCTTTHTFVKALTMDGKQAAWRFIRIDTACVCVLSRKAVRRA
A word on the IC50: it is the midpoint of a concentration-inhibition curve. The low end stands for greater potency in that assay, the high end for weaker potency in that assay. Consider B1, for which, in experiment [1], the “IC50 mut/NGF” value was above 40 ratio. Moreover, the “trkA autophosphorylation, maximal level at 1 × 10^-8 M, mutant/hNGF” value in experiment [2] turned out to be 0.07 ratio. Further, in experiment [3], the “PC12 neurite outgrowth EC50” value was 0.016 µg/mL and the “PC12 neurite outgrowth EC50 mutant/hNGF” value was 114 ratio. For the same molecule, in experiment [4], the IC50 was found to be 210 pM and the “IC50 mut/NGF” value was 1 ratio.
